The values below come from PMC6746316.

This experiment concerns the target Xenopus tropicalis ALDH16B1 (Xenopus tropicalis). Kind of experiment: SEC. A general note: Size exclusion chromatography separates by hydrodynamic size, large species first.

A word on the stoichiometry N: it is the number of molecules, sites or subunits per partner or assembly.

Turning to Xenopus tropicalis ALDH16B1 (enzyme), the stoichiometry N was 2.
